Measured values published in patent US20090285843A1, “EPITOPE SEQUENCES” (Mannkind Corporation, priority 2002, published 2009).
Values belong to the substance of their own block, whether it stands above or below them.

Experiments:
[1] = biological target: HLA-A2.1 (Homo sapiens, UniProt P04439, D140Y/D185E/D98H/E176V/E277Q/G131W/G231S/I119V/I121R/I166T/I218V/L300P/L318F/N151K/N90K/P208A/P217A/Q86G/Q94H/R138H/R169H/T345S); assay: HLA-A0201 binding assay (T2 cells, flow cytometry); details: for binding to HLA-A2.1: T2 cells, flow cytometry, compared with control peptides
[2] = tested on: peptide pulsed T2 cells; assay: In vitro immunization of HLA-A2+ blood (CTL induction cultures), chromium release assay; type: cell-based, human
Experimental: (§1) , tyrosinase207-215 (SEQ ID NO. 8) was used in an in vitro immunization of HLA-A2^+ blood to generate CTL (see CTL Induction Cultures below).
(§2) PBMCs from normal donors were purified by centrifugation in Ficoll-Hypaque from buffy coats. All cultures were carried out using the autologous plasma (AP) to avoid exposure to potential xenogeneic pathogens and recognition of FBS peptides. To favor the in vitro generation of peptide-specific CTL, we employed autologous dendritic cells (DC) as APCs. DC were generated and CTL were induced with DC and peptide from PBMCs as described (Keogh et al., 2001). Briefly, monocyte-enriched cell fractions were cultured for 5 days with GM-CSF and IL-4 and were cultured for 2 additional days in culture media with 2 μg/ml CD40 ligand to induce maturation. 2×10^6 CD8+-enriched T lymphocytes/well and 2×10^5 peptide-pulsed DC/well were co-cultured in 24-well plates in 2 ml RPMI supplemented with 10% AP, 10 ng/ml IL-7 and 20 IU/ml IL-2. Cultures were restimulated on days 7 and 14 with autologous irradiated peptide-pulsed DC.

[3] = tested on: 624.38; assay: In vitro induced CTL, chromium release assay on tumor cell line; type: cell-based, human; details: 624.38, HLA-A2+, tyrosinase+
Experimental: as §1, §2

[4] = tested on: HTB64; assay: as above; type: cell-based, human; details: HTB64, HLA-A2+, tyrosinase+
Experimental: as §1, §2

[5] = biological target: T1, proteasome isolated from human red blood cells (Homo sapiens, UniProt P28072+P28074+Q99436); assay: N-terminal pool sequence analysis of proteasomal digest; type: biochemical; details: in vitro proteasome digestion and N-terminal pool sequencing
T1 construct: from tissue; host or cells: human red blood cells
Excerpt: One aliquot at one hour of the proteasomal digestion (see Example 3 part 3 above) was subjected to N-terminal amino acid sequence analysis by an ABI 473A Protein Sequencer (Applied Biosystems, Foster City, Calif.). Determination of the sites and efficiencies of cleavage was based on consideration of the sequence cycle, the repetitive yield of the protein sequencer, and the relative yields of amino acids unique in the analyzed sequence. That is if the unique (in the analyzed sequence) residue X appears only in the nth cycle a cleavage site exists n−1 residues before it in the N-terminal direction.

[6] = tested on: metastatic melanoma; details: first 15 patients; intradermal peptide with IL-12; cited from earlier work
[7] = tested on: peptide pulsed T2 cells; assay: In vivo immunization of mice, in vitro stimulation, chromium-release assay measuring CTL activity; parameters: species or system HHD1 transgenic A*0201 mice; details: 100 nmol peptide s.c. with HTL epitope peptide in IFA; 51Cr-release
Experimental: Using spleens from 2 naive mice for each group of immunized mice, un-immunized mice were sacrificed and the carcasses were placed in alcohol. Using sterile instruments, the top dermal layer of skin on the mouse's left side (lower mid-section) was cut through, exposing the peritoneum. The peritoneum was saturated with alcohol, and the spleen was aseptically extracted. The spleen was placed in a petri dish with serum-free media. Splenocytes were isolated by using sterile plungers from 3 ml syringes to mash the spleens. Cells were collected in a 50 ml conical tubes in serum-free media, rinsing dish well. Cells were centrifuged ([…], 7 min) and washed one time with RPMI. Fresh spleen cells were resuspended to a concentration of 1×10^6 cells per ml in RPMI-10% FCS (fetal calf serum). 25 µg/ml lipopolysaccharide and 7 μg/ml Dextran Sulfate were added. Cell were incubated for 3 days in T-75 flasks at 37° C., with 5% CO2. Splenic blasts were collected in 50 ml tubes pelleted ([…], 7 min) and resuspended to 3×10^7/ml in RPMI. The blasts were pulsed with the priming peptide at 50 μg/ml, RT 4 hr. mitomycin C-treated at 25 μg/ml, 37° C., 20 min and washed three times with DMEM. […]
During incubation they were gently shaken every 15 minutes. […] Supernatants were harvested and counted using a gamma counter.

[8] = tested on: tumor cells expressing other SSX proteins; assay: Cross-reactivity of CTL with other SSX proteins; type: cell-based
Excerpt: The surrounding regions have also been generally well conserved. Thus the housekeeping proteasome can cleave following V49 in all five sequences.

[9] = tested on: HLA-A1+ CD8+ T cells; assay: gamma-IFN-based ELISPOT assay; type: cell-based, human; details: blocking of gamma IFN production by anti-HLA-A1 monoclonal antibody
Experimental: The wells of a nitrocellulose-backed microtiter plate were coated with capture antibody by incubating overnight at 4° C. using 50 μl (microliter)/well of 4 μg/ml murine anti-human γ (gamma)-IFN monoclonal antibody in coating buffer (35 mM sodium bicarbonate, 15 mM sodium carbonate, pH 9.5). Unbound antibody was removed by washing 4 times 5 min. with PBS. Unbound sites on the membrane then were blocked by adding 200 μl (microliter)/well of RPMI medium with 10% serum and incubating 1 hr. at room temperature. Antigen stimulated CD8^+ T cells, in 1:3 serial dilutions, were seeded into the wells of the microtiter plate using 100 μl (microliter)/well, starting at 2×10^5 cells/well. (Prior antigen stimulation was essentially as described in Scheibenbogen, C. et al. Int. J. […] PSMA462-471 (SEQ ID NO. 62) was added to a final concentration of 10 μg/ml and IL-2 to 100 U/ml and the cells cultured at 37° C. in a 5% CO2, water-saturated atmosphere for 40 hrs. Following this incubation the plates were washed with 6 times 200 μl (microliter)/well of PBS containing 0.05% Tween-20 (PBS-Tween). […] The plate was air dried and the spots counted using a stereomicroscope. […] No reactivity is detected from cultures without peptide (data not shown).

binding activity compared between the two PSMA peptides ([1]; not run in parallel, comparison to the controls): superior binding activity
Substance: RMMNDQLMFL (listed as Homo sapiens) [PSMA662-671]
binding to HLA-A2.1 [1]: significant binding at even lower concentrations than the positive control peptide

binding to HLA-A2.1 [1]: more significant binding
Substance: FLPWHRLFL (listed as Homo sapiens) [tyrosinase207-215]
immunogenicity ([2]; compared with the other tyrosinase length variant): superior immunogenicity
recognition of tyrosinase207-216 targets by CTL induced by the peptide ([2]; peptide pulsed T2 cells, standard chromium release assay): equally well
recognition of tumor cell line by CTL induced by the peptide [3]: recognize
recognition of tumor cell line by CTL induced by the peptide [4]: recognize

relative production by in vitro proteasome digestion [5]: produced more commonly
Substance: FLPWHRLFLL (listed as Homo sapiens) [Tyrosinase207-216]

Substance: MART-126-35 peptide: MART-1 26-35 peptide given intradermally with IL-12 to metastatic melanoma patients (Cebon et al.)
clinical response [6]: 1 complete remission, 1 partial remission, and 1 mixed response

Substance: KASEKIFYV [SSX-241-49]
binding to HLA-A2.1 [1]: bind HLA-A2.1 to a similar extent as the known A2.1 binder FLPSDYFPSV
specific lysis of peptide pulsed targets by CTL from immunized mice [7]: specific lysis
cross-reactivity of CTL generated by immunization [8]: cross-react with tumor cells expressing other SSX proteins

Substance: GLPSIPVHPI (listed as Homo sapiens) [PSMA288-297]
binding to HLA-A2.1 [1]: significant binding at even lower concentrations than the positive control peptides

Substance: GMPEGDLVYV (listed as Homo sapiens) [PSMA168-177]
binding to HLA-A2.1 [1]: significant binding at even lower concentrations than the positive control peptides

Substance: YTLRVDCTPL (listed as Homo sapiens) [PSMA460-469]
binding to HLA-A2.1 [1]: bind HLA-A2.1 to a similar extent as the known A2.1 binder FLPSDYFPSV

Substance: RVDCTPLMY [PSMA463-471]
HLA restriction of response [9]: HLA-A1-restricted response

binding to HLA-A2.1 [1]: binds nearly as well
Substance: TLRVDCTPL (listed as Homo sapiens) [PSMA461-469]

Substance: MMNDQLMFL [PSMA663-671]
binding to HLA-A2.1 [1]: significant binding at even lower concentrations than the positive control peptide
